From publication PMC10279920, “Single-molecule visualization of Pif1 helicase translocation on single-stranded DNA” (The Journal of Biological Chemistry, 2023)
Residue numbers refer to the chain shown, from its start.

Tests used:
Test in all cases: EMSA; no ATP, 5 mM Mg2+; 35 mM Tris-HCl pH 7.5, 1 mM DTT, 5 mM MgCl2, 60 mM KCl, 0.1 mg/ml BSA, no ATP, 30 min at 30 C; 5 nM ssDNA
Conditions in all cases: protein: recombinant; tags: N-terminal superfolder GFP; Ni-NTA purified; label: 5' Alexa647
GFP-Pif1 K264A = target: T1, GFP-Pif1 K264A (Saccharomyces cerevisiae, UniProt P07271 40-859, K264A)
T1 sequence: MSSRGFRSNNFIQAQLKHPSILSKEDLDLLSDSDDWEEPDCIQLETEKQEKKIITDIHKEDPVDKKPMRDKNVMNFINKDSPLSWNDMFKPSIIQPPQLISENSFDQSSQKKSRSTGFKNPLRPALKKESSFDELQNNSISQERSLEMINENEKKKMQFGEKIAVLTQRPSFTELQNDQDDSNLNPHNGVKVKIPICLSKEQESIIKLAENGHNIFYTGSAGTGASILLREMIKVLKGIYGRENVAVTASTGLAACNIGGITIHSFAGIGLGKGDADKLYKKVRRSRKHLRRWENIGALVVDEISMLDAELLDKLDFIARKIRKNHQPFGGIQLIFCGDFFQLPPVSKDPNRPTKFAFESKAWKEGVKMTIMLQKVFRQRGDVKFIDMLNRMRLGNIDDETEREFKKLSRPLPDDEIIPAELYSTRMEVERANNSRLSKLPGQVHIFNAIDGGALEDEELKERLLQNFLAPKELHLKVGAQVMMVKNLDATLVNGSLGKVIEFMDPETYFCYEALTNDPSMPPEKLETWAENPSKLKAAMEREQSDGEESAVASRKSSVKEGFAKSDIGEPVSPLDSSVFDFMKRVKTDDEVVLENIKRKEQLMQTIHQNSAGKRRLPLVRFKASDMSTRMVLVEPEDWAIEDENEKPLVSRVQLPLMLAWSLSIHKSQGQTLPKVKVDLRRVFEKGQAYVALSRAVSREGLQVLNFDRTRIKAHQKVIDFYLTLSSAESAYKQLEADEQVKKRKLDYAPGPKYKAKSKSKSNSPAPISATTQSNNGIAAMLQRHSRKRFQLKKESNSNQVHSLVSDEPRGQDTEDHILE

GFP-Pif1 G291P = target: T2, GFP-Pif1 G291P (Saccharomyces cerevisiae, UniProt P07271 40-859, G291P)
T2 sequence: T1 sequence with A225K, G252P

GFP-Pif1 K312A = target: T3, GFP-Pif1 K312A (Saccharomyces cerevisiae, UniProt P07271 40-859, K312A)
T3 sequence: T1 sequence with A225K, K273A

GCTAGCAGTAGCCAGCATCGAACGTACGATCGGTAACGTA (ssDNA) [40-nt ssDNA]
Kd (GFP-Pif1 K264A): 12.1 nM
Kd (GFP-Pif1 G291P): 61.4 ± 15.8 nM
Kd (GFP-Pif1 K312A): 40 nM
